# Fewer inactive variants are shown than the library holds.
# B1: TPR 5TU (parent)
# chain: GGAUCUUCUCGAUCUAACAAAAAAGACAAAUCUGCCACAAAGCUUGAGAGCAUCUUCGGAUGCAGAGGCGGCAGCCUUCGGUGGCGCGAUAGCGCCAACGUUCUCAACUAUGACACGCAAAACGCGUGCUCCGUUGAAUGGAGUUUAUCAUG
# Variants of: B1
# Assay: polymerase ribozyme fitness, log enrichment relative to wild type (log ratio); higher = more active; in vitro selection for triplet polymerase activity
# How it was run: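 PCR was used to build mutant libraries for each subunit of a heterodimeric triplet polymerase ribozyme, which were then transcribed. A single in vitro selection round, in triplicate, used a frozen incubation at −7 °C and recovered extended constructs by gel excision, streptavidin beads and RT-PCR. Fitness is the logarithm of genotype enrichment relative to wild-type enrichment, averaged over replicates with inverse-variance weights. The logarithm is base 2, and after Illumina sequencing only genotypes with ≥10 input reads and ≥1 read per output were kept.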
row,Variant,polymerase ribozyme fitness (log ratio)
1,GGAUCUUCGCGAUCUAACAAAAAAGACAGAUCUGCCACAAAGCUUGAGAGCAUCUUCGGAUGCAGAGGCGGCAGCCUUCGGUGGUGCGAUAGCGCCAACGUUCUCAACUAUGACACGCAAUACGCGUUCUCCGUUGAAUGGAGUUUAUCAUG [U9G A29G C85U A121U G128U],≤ -4.2
2,GGAUCUUCCCGAUCUAACAAAAAAGAUAAAUCUGCCACAAAGCUUGAGAGCAUCUUCGGAUGCAGAGGCGGCAGCCUUCGGUGUCGCGAUAGCGCCAACGUUCUCAACUAUGACACGCAAAACGCUUGCUCCGUUGAAUGGAGUUUAUCAUG [U9C C27U G84U G126U],≤ -4.2
3,GGAUCUUCCCGAUCUAACAAAAAAGACAAAUCUGCCACAAAGGUUGAGAGCAUCUUCGGAUGCAAACGCGGCAGCCUUCGGUGGCGCGAUAGCGACAACGUUCUCAACUAUGACACGCAAAACGCGUGCUCCGUUGAAUGGAGUUUAUCAUG [U9C C43G G65A G67C C95A],-4.09
4,GGAUCUUCGCGAUCUAACAAAAAAGACAAAUCUGCCACAAAGCUUGAGAGCGUCUUCGGAUGCAGAGGCGACGGCCUUCGGUGGCGCGAUAGCGCCAACGUUCUCAACUAUGACACGCAAAACGCGUUCUCCGUUGAAUGGAUUUUAUCAUG [U9G A52G G71A A73G G128U G143U],≤ -4.2
5,GGAUCUUCGCGUUCUAACUAUAAAGACAAAUCUGCCACAAAGCUUGAGAGCAUCUUCAGAUGCAGAGGCGGCAGCUUUCGGUGACGCGAUAGCGCCAACGUUCUCUACUAUGACACGCAAAACGCGUGCUCCGUUGAAUGGAGUUUAUCAUG [U9G A12U A19U A21U G58A C76U G84A A106U],≤ -4.2
6,GGAUCUUCGCGAUCUAACAAAAAUGACAAAUCUGCCACAAAGCUUGAGAGCAUCUUCGGAUGCAGAGGCGGCAGCCUUCGGUGGCGCGAUAGCGCUAACGUUCUCAACUAUGACACGCAAAACGCGUGCUCCGUUGAAUGGAGGUUAUCAUG [U9G A24U C96U U144G],≤ -4.2
7,GGAUCUUCGCGAUCUAACAAAAAAGACAAAUCUGCCACAAUGCUUGAGAGCAACUUCGGAUGCAGAGGCGGCAGCCUUCGGUGGCGCGAUAGCGCAAACGUACUCAACUAUGACACGCAAAACGCGUGCUCCGUUGAAUGGAGUUUAUCUUG [U9G A41U U53A C96A U102A A150U],≤ -4.2
8,GGAUCUUCGCGAUCUAACCAAAGAGACAAAUCUGCCACGAAGCUUGAGAGCAUCUUCGGAUGCAGAGGCGGCAGCCUUCGGUGGCGCGAUAGGGCCAACGUUCUCAACUAUGACACGCAAAACGCGUGCUCCGUUGAAAGGAGUUUAUCAUU [U9G A19C A23G A39G C93G U139A G152U],≤ -4.2
9,GGAUCUUCCCGAUCUAAUAAAAAAGACAAAUCUGCCACAAAGCUUGAGAGCAUCUUCGGAUGCAGAGGCGCCAGCCUUCGGAGGGGCGAUAGCGCCAACGUUCUCAACUAUGACACGCAAAACGCGUGCUCCGUUGAAUGGAGUUGAUCCUG [U9C C18U G71C U82A C85G U146G A150C],≤ -4.2
10,GGAUCUUCCCGAUCUAACAAAAAAGACAAAACUGCCACAAAGCUUGAGAGCAUCAUCGCAUGCAGAGGCGGCAGCCUUCGGGGGCGCGAUAGCGCCAACGUUCUCAAAUAUGACACGCAAAACGCGUGGUCCGUUGAAUGGAGCUUAUCAUG [U9C U31A U55A G59C U82G C108A C129G U144C],≤ -4.2
11,GGAUCUUCGCGAUCUAACAAAAAACAUAAAUCUGUCACAAAGCUUGAGAGCAUCUUCGGAUGCAGAGGCGGCAGCCUUCGGUGGCGCGAUAGCGCCAACGUACUCAACUAUGACACGCAAAACGCGUGCUCCGUUGAAUGGAGUUUCUCAUG [U9G G25C C27U C35U U102A A147C],≤ -4.2
12,GGAUCUUCGCGAUCUAACAAAAAAGACAAAUCUGCCACAAAGCUUGAGAGCAUCUUCCGAUGCAGAGGCGGCAGCCUUCGGUGGCGCGAUAGGGCCAACGUUCUCAACUAUGACACGUAAAACGCGUGCUCCGUUGAAUGGAACUUAUCAUG [U9G G58C C93G C118U G143A U144C],≤ -4.2
13,GGAUCUUCCCGAUCUAACAAAAAAGACAAAUCUGCCACAAAGCUUGAGAGCAUAUUCGGAUGCAGAGGCGGCAGCCUUCGGUGGCGGGAUAGCGCCAACGUUCUCAACUAUGACACGCAAAACGCGUGCUCCGAUGAAUGGAGUUUAUCAUG [U9C C54A C87G U134A],≤ -4.2
14,GGAUCUUCGCGAUCUAACAAAAAAGACAAAUCUGCCACAAAGCUUGAGAGCAUCUUCGGAUGCAGAGCCGGCAGCCUUCGGUAACGCGAUAGCGCCAACGUUCUCAACUAUGACACGCAAAACGCGUGCUCCGUUGAAUGGAGUUUAUUAUG [U9G G68C G83A G84A C149U],≤ -4.2
15,GGAUCUUCGCGAUCUAACAUAAAAGACAAACCUGCCAGAAAGCUUGAGAGCAUCUUCGGAUGCAGAGGCGGCAGCCUUCGGUGGCACGAUAGCGCCAACGUUCUCAACUAUGACACGCAAAACGCGGGCUCCGUUGAAUGGAGUUUAUCAUG [U9G A20U U31C C38G G86A U127G],≤ -4.2
16,GGAUCUUCGCGAUGUAACAAAAAAGACAAAUCUGCCACAAAGCUUGAGAGCAUCUUCGGAUGCAGAGGCGGCAGCCUUCGGUGGCGCGAUAGCGCCAACGUUCUCAACUCUGACACGCAAAAUGCGUGCUCCGUUGAAUGAAGUUUAUCAUG [U9G C14G A110C C123U G141A],≤ -4.2
17,GGAUCUUCGUGAUCUAACAAAAAAGACAAAUCUGCCACAAAGCUUGAGAGCAUCUUCGGAUGCAGAGGCGGCAGCCGUCGGUAGCGCGAUAGCGCCAACGUUCUCAACUGUGACACGCAAAACGCGUGCUCCGUUGAAUGGAGUUUAUCAUG [U9G C10U U77G G83A A110G],≤ -4.2
18,GGAUCUUCCCGAUCUAACAAAAAAGACAAAUCUGCCACAAAGCUUGAGAGCAUCUUCGGAUGCAGAGGCGGCAGCCUUCGGUGACGCGAUAGCGCCAACGUUUUCAACUAUGACACGCAAAACGCGUGCUCCGUUGAAUGGAGUUUAUCAUG [U9C G84A C103U],≤ -4.2
19,GGAUCUUCGCGAUCUAACAAAAAAGACAAAUCUGCCACAAAGAUUGAGAGCAUAUUCGGAUGCAGAGGCGGCAGGCUUCGGUGGCGCGAUAGGGCCAACGUUCUCAACUAUGACACGCAAAACGCGUGCUCCGUUGAAUGGAGUUAAUCAUG [U9G C43A C54A C75G C93G U146A],≤ -4.2
